B1: DCN1-like protein 3 (Homo sapiens), Q8IWE4 (parent)
chain: MGQCVTKCKNPSSTLGSKNGDREPSNKSHSRRGAGHREEQVPPCGKPGGDILVNGTKKAEAATEACQLPTSSGDAGRESKSNAEESSLQRLEELFRRYKDEREDAILEEGMERFCNDLCVDPTEFRVLLLAWKFQAATMCKFTRKEFFDGCKAISADSIDGICARFPSLLTEAKQEDKFKDLYRFTFQFGLDSEEGQRSLHREIAIALWKLVFTQNNPPVLDQWLNFLTENPSGIKGISRDTWNMFLNFTQVIGPDLSNYSEDEAWPSLFDTFVEWEMERRKREGEGRGALSSGPEGLCPEEQT

Variants of: B1
Details: with cul3_human CUL3, Q13618

Row | Variant | effect of a mutation on the interaction
1 | MGQCVTKCKNPSSTLGSKNGDREPSNKSHSRRGAGHREEQVPPCGKPGGDILVNGTKKAEAATEACQLPTSSGDAGRESKSNAEESSLQRLEELFRRYKDEREDAILEEGMERFCNDLCVDPTEFRVLLLAWKFQAATMCKFTRKEFFDGCKAISADSIDGICARFPSLLTEAKQEDKFKDLYRFTFQFGLDSEEGQRSLHREIAIALWKLVFTQNNPPVLDQWLNFLTENPSGIKGISRATWNMFLNFTQVIGPDLSNYSEDERWPSLFATFVEWEMERRKREGEGRGALSSGPEGLCPEEQT [D241A;A265R;D271A] | disrupting interaction strength

From IntAct's records for PubMed 19617556
